Results as given in the supplement of paper PMC12636428.

system: Saccharomyces cerevisiae; test: transcriptional activation domain activity (GFP:mCherry ratio, weighted mean of sorted bins, harmonized to initial dataset scale) (arbitrary fluorescence ratio units); higher = stronger transcriptional activation; conditions: beta-estradiol 1 µM; induction time 4 h
How it was run: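 Sorting into 8 bins by GFP:mCherry ratio followed a 4-hour hold at 30 °C after cultures were diluted 1:5 into SC with 1 uM beta-estradiol. The yeast diploids carried a GFP reporter and had barcoded protein tiles, fused to an estradiol-inducible synthetic transcription factor, integrated at URA3. Barcodes were then sequenced, and tiles with under 50 reads were removed. Activation activity is the read-weighted mean of bin median fluorescence, averaged across barcodes and linearly mapped onto the initial dataset scale.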

Sequence	transcriptional activation domain activity
KEEESNELKSEQEPPSAVESIAAVMTPSDNGSRFYIKRRILIGNVSKYIAPER	23100
KVEIRERDARSVVKLRSGANVPVTESTHGLDGGTGQDVHILVAQTKSKKFNRH	49800
SRLHARIEYEESSEQFVLAVLGRNGAWVDGVWSGSGSRVPLSSRSQIQIASRV	52800
VMPTWLWMPLLLVANFFCRFFLFHLIICSYIYPLLYVQLMWVFWFIWRGVFSF	55700
YADWLLEPEQNNGTWVADVLWPAINLDLQWISSHWNQSSWDLWWPPVWGGSYW	67800
KEESGAKTPQSPASKSADDKNATREKEGAGSPDAAKGKGNEEVQTESGRDDRK	28400
FFHVTIRCASQGCGIAFGILGFQNTNVFLAYLILGAEGYFTLVLCVFRFLISW	73400
TGVGLGVCARHEFVLANSAVDLQRGERYANMDYCAASLLRHICLLLFIVFLYD	57700
FYFFFLLSLFSSSSPPLIFLALPLPFSISLTVSNPLAFPVAFFPLFSLSSLLN	65800
LFLFYACVNMIFWRVFMRISYSCPAHLKFFLTVEKWTELVKMTADAIDWLDAH	47800
INGLFMLLLVYYLTLYHLARCLGYSVLSYLAHFIRFDGFCPLLHTCAGLLFSS	42300
YGFGGFLSVPLLFFIAFEFPRLHSLLYQLYLFVCVWSWAYYSTIIMFSCHFYP	57500
SFHAFFFLYLPCCLFFYFCIVLVLVLVGYWCLVFFFIVFGSFPPPLLSKYLHL	46200
EAEDDEEDADAAGGKKPKAKKRKRESTVKESAEEKKGKRKRASEQLAKQRRGK	22600
QNAIELTLLCITLIASDTLLLLRVSALCADRSSGVWGISYFYIIRRLLWGVYF	68700
VFERVRLDWLILFDLRMWKKVRNDLRALYISTVVTIPEFKRILGLRFAALYTT	51300
DGNAGQTAGNAGNGRQNGNGRQGGNGGAGQQGKPRPNGQKGQQGQRGQGAGAG	20500
DLASPSDNDIDEARSREIAAKAVTGILVLLLKWLKLSHILKFEYLTQLLLDSN	64400
CVGFANYCHFIRFLVYVGLGAIYLMVLLGCRLSSILYHPASATEWVLLGLNLF	63000
FPPPFPPPFPPPFLSSFPPPVPLPLTFPLPPFPFQFPFPFPHPLTFPLPFPFP	17600
RYNHLFDETLVAICVLLGRIGGRFIVDDFEVMWCHNLFRTKVVKAIVVFALAY	39600

Sequence	transcriptional activation domain activity
PNDDFLLDCEEWGLNQLFGDEQFSNNINDLSDDLLALIPDWSFIPPSEDPWGL	147000
VGTLHENLSSSHFMIPDVDQFNSFEDFFQDFFDSLKPNSQKMFTSDKKTEQTT	106000
EVMKIMPVQKQTRAGQRTRFKAFVVIGDSEGHVGLGVKCAKEVATAIRGAIIL	56900
NSLKGMAVDFRWWLLAHKKRPLREVNLILQLDSLTEVIKLACVSPKLSFLCIM	71000
MSRQPVRAIFLYDILLFFLSGRSIDFVLIFSTWPFFFSFFLSFSLPPYFYFIL	71500
EYFYYKMLAPSAATVFYVYVGLIKMSIALFNIRLTTLTTKLWGNVNWAFFVIC	63000
TSVLPIIAVHCAYKTPISDYILAFCYLLPYIYHSMGYLVRWLYLGLRVIFVAK	70400
MPLCSLHTYKGGWLWLWWLRWWWRNNNCEALNFSFFFFFFFFLFLFRGVDGVL	66000
RWCARCMLLTATLHMGYFFSAWAPYDYIGYQLKNNKIVWKGLAAWCTLVWIVF	93300
MLSFVIVRLLTSHLQLVWRAALLLCKPLCICPLQFLYDRESHYNLLCNEAVVF	68500
DKPIAAKKPSAQRKRKVKLESDADSSGDDQPIVKKPAAKKPRASKAKKEEPAS	23100
GGGTAARSAGSSSREEERGQRRHGRGERGREGADAGRKGGREGTREALAGKGR	30800
MADACGSNPGGKSVKDVRAEQESKRARGALSCAECRRLKLRCDKRVPCSSCQR	25400
VVPYYCLFVFFPFYSCVLVRLAGNCHSCLIIALFFLILISGRSFFFFFFFFFF	14200
PFSFSNTDLTALFTHPEGPNCTNTNNGNVDVCNRASTDATDANIENLSFLNMA	116000
TGDDDAAKTTPKKRGDADGTPKTAKSTPRKRKTKAEGDGECSPKKRGRKTKVV	36500
AKMSVRPTVFGLNYIQLVAKLRLSLEDVRVEYLIYAAQILVLKDQFLRHEFHV	53000
MDGVLKLPFLSFLFPFFLFFSSPPLFSPCFFPLFLSFFAVIAFFPFLCFCLPV	29300
QHNASQPGDLHSVLHRNQREGQHSVNQLVDRHSESQRGGQHNVNQQRDLQHGN	33400
HCLTFHQTSKLTHILLTYRQSILVTVYSHLLLLDHSSQVWWRWMNIFFTLVIW	69500
RLWCFSRGFMLVNYNVLVLSCQLAWSSEFLMSFWTFVFVLILMLLYYFVWAHK	43700

Sequence	transcriptional activation domain activity
GSKGAMRARAEERGEGGEGGEREEGREGRGERRGGGRGGEGRERERGGREGRG	25000
ASPDADGNGEVKKKYDPKDPMRPRRKKARRACYACQRAHLTCGDERPCQRCIK	43400
LSRKASELRHATRNWALHSKHEEWNVSFRELARKYLIRPFLLMINPVCFLMSF	74700
DPIRYLSTMDLGYCVGDKIIGSVLCYKQPIVLLILMYFTDQILFFLDTYLWYI	40600
DQCDITPEMRKEYNIDGADKANNPELAMDWLLVHLLFRTLQLLPNMFRAWLFN	56200
EAEDAPAAAVSIEEDAPVKEVEAPAPEPEVLEPEKPKEPSPTPVAAATKPAAP	49100
LHLFTNIDILKYDYGHIREDHIWVCLMHFTKRSRVVRWLVKSIYRPLLLGGLR	77200
GCLLTFPNKIDWATLVIILFSETFTICLLLIKGFYWVISSAHKVGDRVLYYVA	50800
TEETPHDLPKNTAKGRDEEDFPLDYFPVSVEYPTEENAFDPFPPQAFTPAAPS	42500
QLMTGPVLLDREVQTGHSGSLLVLVMSCWSLECFERRQALRKTVLALLGPLRE	70700
RRRRRHEEGGRGGDRSRGRDGERSSTRHEERRHRSRDRRDDRDRDRGSERRGH	44500
LTKKALDRLLGGDLSSLVAATISVSDWILDVAISSHDRISCILVTAHNTVLQA	35700
TPTAQYQQGYHFRHLRYVMCLSVAVLIVGAVSLTIPLPISARIASILRFWEHD	44200
MYRWISSIDAICVHLWGYMKNLACLLLTHIFYCLASMCLLLVDTLITGVGNIP	61100
MTTWHKVFFFFRNLSFFCLFCLSCFFFLLLFLMKLETTNKVSILYLSLTLILF	43700
VAEDAVVAEDAVAAVVDVDVNHVAAAAVVDVEDVEGAEDVEGVVDAAAHRVAA	16900
MFCLRSWLPLLFIPTNAPPIFVFLFFVCTFFLSRPCVYCSFLLAILFLTSCYW	65100
KKEKSPSEDEAEKPKSPKSPFAKLRATVKGKSPKTEKPAEEPKAEAAPEAKTE	24100
CCMVWGRRWLIVLFPIFCLITVFVFKILEVFTGAFSWVENVRFLVVYLSCILA	34800
EKKEGAEKEGGEKKEAGGEGEKKVGGEGEKKEGGEGEMKESGVEGGKKEASES	26600
FRLVPFVLWPPFTRRQTDELYLFSWSFLALIWFFIWSLVQFPIVLTVLLSLVF	52000

Sequence	transcriptional activation domain activity
LFLLLMFQGLDIFTPGIRVLHFRICLLLLLLIILLAVPLLFSYIHLTAFTIFY	59100
YAVPNDFVVTGGLLLLRYDRLNELPLGTRANSSVLVCVYRTWIALMRYLLAGP	62800
MSFYFNFYFPICLFFIFIFIVYFLFFIFYLFYFVVYFFLFLLAFIFVFFSVVY	41700
RAAAVRGAAQEPQPESRGTSATPARKTAKTEGEEKPAKKRRTAGGDKANKRSK	9380
RLRLSCYIMMCVVTSYSTWAIVSGYFTCVPVAKFWDPTIKGHCLNFQALWFFN	61900
AIMIMCLLLFENEFLNIVAISFTALVLNELIMVALEITTWHIYMILAEIVTLF	55800
PPASTHTSVTSSPPVNDQWKDYALVLVRLMPMDKLSKPSFRYIIKSTYVRAVC	58000
MCSCVIRRHPLAKPKMGSFQSIGALTCSSCSSWKMCILLFLILVWFTFRLTSL	21400
WWLLGDSYESEIISLVILFQFWNNGALVNFGSAFRQAWWRNYLLVFVWSCFFI	17800
PPGNRTGAVTIGDESINGSEMPDFSLDLVSNDRQTGLEALDYDIHNYFPQHSE	75200
EVNYLYGLILLQFYTGFIHDIIFGSGHLPFLPLMITSIYCSLGVVYGWGYFML	51000
MWCTRWFLPLLLLPLPTAPPFFLALFLISLTLHSKPCFYCILLLTTLFLTSCY	45300
MNPPDNIIILPFHPLPFFWLLIFIPFSLSLPSSFFFNSNLSFLFFFFVFCFMI	68600
MAKKASGSADKKTADKGDKKGKAKPTADDGEDKQSKGKGALKAATAVNVRHIL	44600
VFLNGILFLGSILFYQVVLLRLNWYLLHILAYTIAFAYNAFWLYPVYCLSFLL	33000
MIIVRSIFYCLGLIALLEFMLIRVASAFAISSLLTNLAYNKPFFLTYLSCATH	67100
FKVGIDGCLRLRGAGSTLCFHRVVRILTATIGTMVRVLFVCKELWRVTGEETS	51700
DLLVLLRKCREVALRIIQKESCFNVLNLRRELVSNLLLSFWVVGQSLTTKVPM	33000
MHSGPSFSCFFSVFPSFIFGLSTSSTLYIYFFFLLLDQLFVPSFFALLLLFLP	41400
NNIISNRKQASKEKRKIPRHIQTIDEKLINDSNYLAFLKFDDLENEKFHSSAS	56600
